Experiment: yeast display, Sf9 membrane polyspecificity reagent, FACS + sequencing; frameworks hold sequencing errors
Procedure, shortened: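 Galactose induction of a Saccharomyces cerevisiae BJ5465 synthetic nanobody display library ran 36–48 hours. The cells were then stained for 1 hour at 4 °C with 10% biotinylated, detergent-solubilized Sf9 membrane reagent, pulled down on streptavidin microbeads and FACS-sorted into low and high (top ~1%) gates on expression and reagent-binding fluorescence. Labels for polyreactivity follow the gate of origin.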

Row | Sequence | polyreactivity (PSR sort gate)
1 | QVQLVESGGGLVQAGGSLRLSCAASGRIFSRYAMGWYRQAPGKERELVAAIRSNGGRTYYADSVKGRFTISRDNAKNTVYLQMNSLKPEDTAVYYCAAAGGGKVSYRDYDYWGQGTQVTVSS | high polyreactivity
2 | QVQLVESGGGLVQAGGSLRLSCAASGITFKRYTMGWYRQAPGKERELVADITWSGGSTYADSVKGRFTISRDNAKNTVYLQMNSLKPEDTAVYYCAAEWQTWYGVEYDYWGQGTQVTVSS | high polyreactivity
3 | QVQLVESGGGLVQAGGSLRLSCAASGSTFGHYAMGWSRQAPGKERELVARITSDDSTSYADSVKGRFTISRDNAKNTVYLQMNSLKPEDTAVDYCAARYYSYSWHPARYQGRYSWGQGTQVTVSS | high polyreactivity
4 | QVHLVESGGGLVQAGGSLRLSCAASGRTLGGNAMGWYRQAPGKERELDAAITNSASTYADSVKGRFTISRDNAKNTVYLQMNSLKPEDTAVYYCNAPDPSDQHGDYWGQGTQVTVSS | low polyreactivity
5 | QVQLVESGGGLVQAGGSLRLSCAASGSIFADYAMGWYRQAPGKERELVAVISRRGGTTYYADSVKGRFTISRDNAKNTVYLQMNSLKTEDTAVYYCAARRSFNEYDYWGQGSQVTVSS | high polyreactivity
6 | QVQLVESGGGLVQAGGSLRLSCAASGRIFSHYDLGWYRQAPGKEREVVAAISSGGITYYADSVKGRFTISRDNAKNTVYLQRNSLKPEDTAVYYCAAVRRRGTTYDYWGQGTQVTVSS | high polyreactivity
7 | QVQLVESGGGLVQAGGSLRLSCAASGSSFRRNAMGWYRQAPGKERELVAAITRGGGSTYYADSVKGRFTISRDNAKNTVYLQMNSLKPEDNAVYYCAAQISATRETMDYWGQGTQVTVSS | high polyreactivity
8 | QVQLVESGGGLVQAGGSLRLSCAASGITFKTYTMGWYRQAPGKERELVAAITRSGAGTYYADSVKGRFTISRDNAKNTVDLQMNSLKPEDTAVYYCAARVRWGYRYGYWGQGTQVTVSS | high polyreactivity
9 | QVQLVESGGGLVQAGGSLRLSCAASGRTFEGNAMGWYRQAPGKESELVAAITSGGRTNYADSVKGRFTISRDNAKNTVYLQMNCLKPEDPAVYYCAVETRDRSNYFPGQAYDYWGQGTQVTVSS | low polyreactivity
10 | QDQLVESGGGLVQAGGSLSLSCAASGRTFTVYAMGWYRQAPGKERELVAAISGSSGSTDYADSVKGRFTISRDNAKNTVYLQMNSLKPEDTAVYYCAKASSATRYVQLRQDYDYWGQGTQVTVSS | low polyreactivity
11 | QVQLVESGGGLVQAGGSLRLSCAASGFTFEYNAMGGYRQDPGKERELVAAITTTGSTYYADSVKGRFTISRDNAKNTVYLQMNSLKPEDTAVYYCAADPVWRGYSYQFDYWGQGTQVTVSS | low polyreactivity
12 | QVQLVESGGGLVQAGGSLRLSCAASGRIFYSYAMGWYRQAPGKERELVAAIDESDGSPYYADSVKGRFTISRDNAKNTVYLQMNSLKPEDTAVYYCAADSLLVLFDYWGQGTQVTVSS | low polyreactivity
13 | QVQLVESGGGLVQAGGSLRLSCAASGLTFLWYAMGWYRQAPGKERELVAAITSGGRTKYADSVKGRFTISRDNAKNTVYLQMNSLKPEDTAVYYCAAYTQWWGYDYWGQGTQVTVSS | high polyreactivity
14 | QVQLVESGGGLVQAGGSLRLSCAASGRTLPRYAMGGYRQAPGKERELVARIRYRGVSTYYADSVKGRFTISRDNAKTSVYLQMNSLKPEDTAVYYCAARASRAGLSGYWGQGTQVTVSS | high polyreactivity
15 | QVQLVESGGGLVQAGCRLRLSCAAAAYIYRYAMGWYIQAPGKEREFVAAITWNGGSTYYADSVNGRFTISRDNAKITVYLQMNSLKPEDTGVYYCADDWSYYRRHFDYWGHGTQVTVSS | high polyreactivity
16 | QVQLEESGGGLVQAGGSLRLSCAASGRIGAYAMGWYRQAPGKERELVAGITSNGASTYYADSVKGRFTISRDNAKNTVYLQMNSLKPEDTAVYYCAARYRFQRGGYYYWGQGTQVTVSS | high polyreactivity
17 | QVQLVESGGGLVQAGGSLRLSCAASGRIFWGNAMGWYRQAPGKERELVAAITRRGGTTFYADSVKGRFTISRDNAKNTVYLQMNSLKPEDTAVYYCAARRYGQYDGYDSWGQGTQVTVSS | high polyreactivity
18 | QVQLVESAGGLVQAGGSLRLSCAASGTILWWNAMGRYRPAPGKERELVADITSDGTYADSVKGRFTISRDNAKNTVYLQMNSLKPEDTAVYYCAAVDAYGPGLNGYDYWGQGTQVTVSS | low polyreactivity
19 | QVQLVESGGGLVQAGGSLRLSCAASGRTFGGYAMGWYRQAPGKERELVATISYSSGSTYYADSVKGRFTISRDNAKNTVYLQLNSLKTEDTAVYYCAAEYRSRSWRMDYWGQGTQVTVSS | high polyreactivity
20 | QVQIVESGGGLVQAGGSLRLSCAASGSIFDGNAMGWYRQAPGKERELVAAITWRGTRTYYADSVKGRFTISRDNAKNTVYLQMNSLKPEDTAVYYCAATSYSTYILGGTRRYDYWGQGTLVTVSS | high polyreactivity
21 | QVQLVESGGGLVQAGGSLRLTCAASGLIFVDNAMGWYRQAPGKERELVAAIDSGGSTNYADSVKGRFTISRDNAKNTVYLPMNSLKPEDTAVYYCAAEYVRFYWYTSDYWGQGTQVTVSS | low polyreactivity
22 | QVQLVESGGGLVQAGGSLRLSCAASRLIFYTYAMGWYRQAPGKETELVAAISFSGGSTYYADSVTGRFTISRDNAKNTVYLLMTSLKPEDTAVYYCAARGYYGYYYWGQGTQVTVSS | high polyreactivity

Row | Sequence | polyreactivity (PSR sort gate)
23 | QVQLQESGCGLVQAGGSLRLSCAASGDIIEADDMGWYRQAPGKERELVASITDGGSTNCADSMKGRSTICRDNAKITVYLQMNSLKLEDTAVYYCAAIAYPDVPTYFDYDSDYFYWGQGTLVTVSS | high polyreactivity
24 | QVQLVESGGRLVQAGGSLRLSCAASGRIFSRNAMGWYRQAPGKERELVAGISARGGRTYYADSVKGRFTISRDNAKNTVYLQMNSLKPEDTAVYYCAASFSAIRGGVRVTIDYYWGQGTQVTVSS | high polyreactivity
25 | QVQLVESGGGLVQAGGSLRLSCAASGITFRSYAMGWYRQAPGKERELVAAISTSGGRTYYADSVKGRFTISRDNAKNTVYLQMNSLKPEDTAVYYCNKVGAVYGYYAYGLGYWGQGTQVTVSS | high polyreactivity
26 | QVHLVESGGGLVQAGGSLRLSCDASGSTFYCYAMGWYRQAPGKERELVASISWSGGRSYYADSVKGRFTISRDNAKNTDYLQMNSLYPEDTAVYYCAARRKGRYDYWGQGTQVTVSS | high polyreactivity
27 | QVQLVETAGRLVQAGGSLRLSSAASGFTFYIYAMGWSRHAPGKERQLVAAISGGGSTYYADSVKGRFTISRDNAKNTVYLQMNSLKPEVTAVYYCAVFPAAIYHRRGTYDYWGQGTQVTVSS | high polyreactivity
28 | QVQLVESGGGLVQAGGSLRLSCAASGSIFARYAMGWYRQAPGKERELVAAIDQSAGSTYYADSVKGRFTISRDNAKNTVYLQMNSLKPEDTAVYYCNADYWYWWVITYVGPGLGYWGQGTQVTVSS | high polyreactivity
29 | QVQLVESGGGLVQAGGSLRLSCAASGFTFPPYGMGWYRQAPGKERELVASISIGGGTYYADSVKGRFTISRDNAQNTVYLQMNSLKPEDTPVYYCAADLGQWSYYEFDYWGQGTQVTVSS | low polyreactivity
30 | QVQLVESGGGLVQAGGSLRLSCAASGSTFGYYAMGWYRQAPGKERELVAAIRWSGSTYYADSVKGRFTISRDNAKNTVYLQMNSLKPEDTAVYYCAADFVKRQANRQFDYWGQGTQVTVSS | high polyreactivity
31 | QVQLVESGGGLVQAGGSLRLSCAPSGFTFSQYAMGWYRQAPGKEREFVAAISRSGGSTYYADSVKGRFTISRDNAKNTVYLQMNSLKPEDTAVYYCAAGLVATFSRRGRASYRYNYWGHGTQVTVSS | high polyreactivity
32 | QVHLVESGGGLVKAGGSLGLSCSPSGSTLSFNAMGWYRQAPGKERELVAGITYSGGSTYYADSVKGRFTISRDNAKNTFYLLMNSLKPEDTAVYYCNKASGVYYGHLDYWGQGTQVTVSS | low polyreactivity
33 | QVQLVESGGGLVQAGGSLRLSCAASGRTFGFNVMGWYRQAPGKEREFVAAITRSGGSTYYADSVKGRFTISRDNAKNTVYLQMNSLKPEDTAVYYCAAYKFSARYYYWGQGTQVTVSS | high polyreactivity
34 | QVQLVESGGGLVQAGGSLRLSCAASGRTFHAYVMGWYRQAPGKERELVADISSGGDTYADSVKGRFTISRDNAKNTVYLQMNSLKPEDTAVYYCAVDLIQDESRYWGQGTQVTVSS | low polyreactivity
35 | QVKLVESGGCLVQAGCSLRLSCAASGRTFHGYAMGWYRQAPGTERELVAAITVSGDSTYYADSVKGRFTISRDNAKNTVYLQMNSLKPEDTAVYYCNASFREPSTPVYLVAFDYWGQGTQVTVSS | low polyreactivity
36 | QVQLVESGGGLVQAGGSLRLSCAASGSIIRNAMGWYRQAPGKERELVAAINWSGGSTYYADSVKGRFTISRDNAKNTVYLQMNSLKPEDTAVYYCNKVRGTVHATRRNGDYWGQGTQVTVSS | high polyreactivity
37 | QVQLVESGGGFVQAGGSLRLSCAASGRIFRTNAMGWYRQAPGKERELVAAITSSGTRTYYADSVKGRFTISRDNAKNTVYLQMNSLKPEDTAVYYCAAGGGHSMYYWGQGTQVTVSS | high polyreactivity
38 | QVQLVESGGGLVQAGGSLRLSCAASGSIFVKYAMGWYRQAPGKERELVAAISRSGGSTYYADSVKGRFTISRDNAKNTVYLQMNSLKPEDTAVYYCAASNYKGMNYWGQGTQVTVSS | high polyreactivity
39 | QVQLVESGGGLVQAGGSLRLSCAASGSTFAGNAMGWYRQAPGTDRELVAAIDSSTGSTYYADSVKGRYTISRDNAKNTVYLHMNSLKPEDTAVYYCNKTSFLVTLDYWGQGTQVTVSS | low polyreactivity
40 | QVQLVESGGGLVQAGGSLRLSCAASGRIFASYAMGWYRQAPGKERELVASISWGGGSRTYADSVKGRFTISRDNAKNTVYLQMNSLKPEDTAVYYCAADVHYTFGMDYWGQGTQVTVSS | high polyreactivity
41 | QVQLVESGGGLGQAGGSLRLSCAASGRIFVDYAMGWYRQAPGKERELVAAINSGGSTNYADSVKGRFTISRDNAKNTVNLQMNSQKPEDTAVYYCNKDTLVYGYVQDYEYWGQGTQVTVSS | low polyreactivity
42 | QVQLVESGGGLVQAGGSLRLSCAASGSTLIANAMGWYRQAPGKERELVAGITYRGGDITTYADSVKGRFTISRDNAKNTVYLQKTSLKPEDTAVYYCAARVVWPTWARGGYWGQGTQVTVSS | low polyreactivity
43 | QVQLVESGGGLVQAGGSLRLSCAASGSIFRAYAMGWYRQAPGKERELVAAITGNGARTYYADSVKGRFTISRDNAKNTVYLQMNSLKPEDTAVYYCAKRGNRQHRWWYDYWGQGTQVTVSS | low polyreactivity

— the nanobody polyreactivity screen of Harvey et al. (2022)
